Experimental findings from the supplement of paper PMC9112550, “Optimization of the antimicrobial peptide Bac7 by deep mutational scanning” (BMC Biology, 2022) are described below.
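Also: peptides expressed intracellularly from a pBAD plasmid library in pooled LB shake-flask culture, induced with 0.3% L-arabinose, DNA abundance read by NGS, three biological replicates, DESeq2 with apeglm shrinkage.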

The test system of this data set is Escherichia coli TOP10. The data set is described as follows: shrunken log2 fold change of peptide-encoding DNA abundance (4.5 h post-induction vs induction); higher = less antimicrobial activity (less host growth inhibition). Conditions: time post-induction: 4.5 h; library: site-saturation at positions 5, 18, 19, 20.
Turning to RRIRGRPPRLPRPRPRPVYIPRP, the “shrunken log2 fold change” value was -0.194. The same measure for RRIRRRPPRLPRPRPRPFWKPRP: 0.111; for RRIRARPPRLPRPRPRPPCTPRP: 0.164; for RRIRYRPPRLPRPRPRPRADPRP: 0.0349.

RRIRFRPPRLPRPRPRPTLTPRP: the “shrunken log2 fold change” value was 0.445.

Take RRIRRRPPRLPRPRPRPFDGPRP: the “shrunken log2 fold change” value was determined as 0.079.

On to RRIRNRPPRLPRPRPRPRTGPRP, for which the “shrunken log2 fold change” value was -0.0238. With RRIRLRPPRLPRPRPRPIEHPRP, the “shrunken log2 fold change” value was -0.31. With RRIRRRPPRLPRPRPRPTCCPRP the figure was 0.397.

RRIRMRPPRLPRPRPRPPQWPRP: the “shrunken log2 fold change” value is 0.982.

Turning to RRIRARPPRLPRPRPRPLSNPRP, the “shrunken log2 fold change” value is 0.25.

As for RRIRCRPPRLPRPRPRPTGLPRP, the “shrunken log2 fold change” value was 0.106.

Consider RRIRLRPPRLPRPRPRPQRCPRP, for which the “shrunken log2 fold change” value came to 0.487. Take RRIRTRPPRLPRPRPRPQALPRP: the “shrunken log2 fold change” value was determined as 0.231.

With RRIRFRPPRLPRPRPRPLVVPRP, the “shrunken log2 fold change” value is -0.0929. With RRIRNRPPRLPRPRPRPGDCPRP, the “shrunken log2 fold change” value was found to be 0.404. The same measure for RRIRTRPPRLPRPRPRPGILPRP: -0.0375; for RRIRRRPPRLPRPRPRPLQIPRP: 0.0422.

Take RRIRDRPPRLPRPRPRPPWMPRP: the “shrunken log2 fold change” value was 0.261. Regarding RRIRQRPPRLPRPRPRPEKYPRP, the “shrunken log2 fold change” value was -0.304. With RRIRDRPPRLPRPRPRPFEFPRP the figure was 0.0215.

As for RRIRCRPPRLPRPRPRPQECPRP, the “shrunken log2 fold change” value was -0.0139.

Turning to RRIRVRPPRLPRPRPRPDFAPRP, the “shrunken log2 fold change” value was found to be 0.147. The same measure for RRIRQRPPRLPRPRPRPVRKPRP: -0.0285; for RRIRRRPPRLPRPRPRPRSIPRP: -0.0781; for RRIRFRPPRLPRPRPRPPQHPRP: 0.108. The same measure for RRIRLRPPRLPRPRPRPRMPPRP: 0.352; for RRIRWRPPRLPRPRPRPEIFPRP: 0.0932.

Consider RRIRPRPPRLPRPRPRPKGFPRP, for which the “shrunken log2 fold change” value is 0.0275. With RRIRRRPPRLPRPRPRPPEEPRP the figure was 1.37; with RRIRYRPPRLPRPRPRPLEDPRP, -0.00931. With RRIRGRPPRLPRPRPRPWKHPRP the figure was -0.161. On to RRIRFRPPRLPRPRPRPNRDPRP, for which the “shrunken log2 fold change” value was -0.0824. Consider RRIRNRPPRLPRPRPRPDNNPRP, for which the “shrunken log2 fold change” value was -0.187. The same measure for RRIRGRPPRLPRPRPRPRLRPRP: 0.87.

RRIRSRPPRLPRPRPRPMWLPRP: the “shrunken log2 fold change” value stood at 0.0415. Turning to RRIRFRPPRLPRPRPRPALCPRP, the “shrunken log2 fold change” value is -0.088. The same measure for RRIRVRPPRLPRPRPRPREMPRP: 0.0631; for RRIRVRPPRLPRPRPRPQNTPRP: -0.524. The same measure for RRIRIRPPRLPRPRPRPNPYPRP: -0.659; for RRIRRRPPRLPRPRPRPYWPPRP: -0.377. With RRIRERPPRLPRPRPRPTFDPRP, the “shrunken log2 fold change” value is -0.066. In the case of RRIRKRPPRLPRPRPRPPYDPRP, the “shrunken log2 fold change” value is -0.0658. The same measure for RRIRTRPPRLPRPRPRPGWMPRP: -0.182; for RRIRLRPPRLPRPRPRPCACPRP: -0.385; for RRIRRRPPRLPRPRPRPCVEPRP: -0.0155. The same measure for RRIRYRPPRLPRPRPRPKSIPRP: -0.0776; for RRIRFRPPRLPRPRPRPMHNPRP: -0.52; for RRIRIRPPRLPRPRPRPQALPRP: -0.0788. The same measure for RRIRARPPRLPRPRPRPMHRPRP: -0.137; for RRIRHRPPRLPRPRPRPPTQPRP: 0.137; for RRIRQRPPRLPRPRPRPSDWPRP: -0.131.

In the case of RRIRIRPPRLPRPRPRPRITPRP, the “shrunken log2 fold change” value is -0.354. For the sequence RRIRPRPPRLPRPRPRPQKLPRP, the “shrunken log2 fold change” value is -0.0225. On to RRIRRRPPRLPRPRPRPITIPRP, for which the “shrunken log2 fold change” value is 0.035. With RRIRFRPPRLPRPRPRPSWKPRP, the “shrunken log2 fold change” value was determined as 0.206. The same measure for RRIRARPPRLPRPRPRPELAPRP: 1.39; for RRIRDRPPRLPRPRPRPQYKPRP: -0.121. Turning to RRIRCRPPRLPRPRPRPFFHPRP, the “shrunken log2 fold change” value is -0.364. As for RRIRDRPPRLPRPRPRPTKGPRP, the “shrunken log2 fold change” value stood at 0.0341. With RRIRFRPPRLPRPRPRPMVWPRP the figure was 0.156; with RRIRRRPPRLPRPRPRPDRHPRP, -0.0411.

For the sequence RRIRKRPPRLPRPRPRPGIIPRP, the “shrunken log2 fold change” value was -0.000605. With RRIRCRPPRLPRPRPRPWVNPRP the figure was -0.19.

With RRIRDRPPRLPRPRPRPFVKPRP, the “shrunken log2 fold change” value is -0.1. The same measure for RRIRARPPRLPRPRPRPKGEPRP: 0.556. With RRIRRRPPRLPRPRPRPKPFPRP, the “shrunken log2 fold change” value is 0.655. With RRIRERPPRLPRPRPRPELFPRP the figure was 0.201; with RRIRVRPPRLPRPRPRPAGLPRP, 0.192.

Turning to RRIRGRPPRLPRPRPRPCYQPRP, the “shrunken log2 fold change” value was 0.219. Turning to RRIRWRPPRLPRPRPRPAACPRP, the “shrunken log2 fold change” value is 0.0948. With RRIRDRPPRLPRPRPRPHVHPRP the figure was -0.134.

RRIRKRPPRLPRPRPRPAKNPRP: the “shrunken log2 fold change” value was 0.487. The same measure for RRIRQRPPRLPRPRPRPAERPRP: 0.179. The same measure for RRIRNRPPRLPRPRPRPSGNPRP: -0.315; for RRIRTRPPRLPRPRPRPKILPRP: -0.0614. For RRIRKRPPRLPRPRPRPGPNPRP, the “shrunken log2 fold change” value came to 0.795. With RRIRFRPPRLPRPRPRPLRMPRP the figure was 0.0542; with RRIRWRPPRLPRPRPRPGMGPRP, 0.525. With RRIRIRPPRLPRPRPRPPYAPRP the figure was -0.274. With RRIRARPPRLPRPRPRPNSLPRP the figure was -0.207.

Regarding RRIRTRPPRLPRPRPRPKHPPRP, the “shrunken log2 fold change” value was -0.317.

As to RRIRNRPPRLPRPRPRPNSVPRP, the “shrunken log2 fold change” value was -0.0503. With RRIRYRPPRLPRPRPRPGQSPRP the figure was -0.108. With RRIRIRPPRLPRPRPRPRAAPRP the figure was 0.458; with RRIRFRPPRLPRPRPRPADVPRP, 0.258. Take RRIRTRPPRLPRPRPRPPIFPRP: the “shrunken log2 fold change” value was -0.245. In the case of RRIRTRPPRLPRPRPRPANHPRP, the “shrunken log2 fold change” value was -0.179. The same measure for RRIRNRPPRLPRPRPRPGSGPRP: 0.179; for RRIRERPPRLPRPRPRPSDEPRP: -0.228; for RRIRGRPPRLPRPRPRPRMWPRP: 0.223. The same measure for RRIRYRPPRLPRPRPRPAFHPRP: -0.518. With RRIRRRPPRLPRPRPRPSWNPRP the figure was -0.157; with RRIRLRPPRLPRPRPRPKFYPRP, -0.369. Consider RRIRPRPPRLPRPRPRPAVHPRP, for which the “shrunken log2 fold change” value is 0.0984. The same measure for RRIRFRPPRLPRPRPRPEEDPRP: -0.185.

In the case of RRIRTRPPRLPRPRPRPWYYPRP, the “shrunken log2 fold change” value was -0.117.

In the case of RRIRSRPPRLPRPRPRPFQRPRP, the “shrunken log2 fold change” value was determined as 0.101. As for RRIRPRPPRLPRPRPRPENQPRP, the “shrunken log2 fold change” value worked out at 0.0738.

Consider RRIRERPPRLPRPRPRPWYGPRP, for which the “shrunken log2 fold change” value was -1.02. On to RRIRTRPPRLPRPRPRPPYDPRP, for which the “shrunken log2 fold change” value is -0.398. In the case of RRIRNRPPRLPRPRPRPNIFPRP, the “shrunken log2 fold change” value was -0.29. For the sequence RRIRFRPPRLPRPRPRPSEVPRP, the “shrunken log2 fold change” value is -0.0167. With RRIRDRPPRLPRPRPRPELRPRP the figure was 0.621; with RRIRMRPPRLPRPRPRPQFSPRP, 0.0281.

With RRIRARPPRLPRPRPRPRFLPRP, the “shrunken log2 fold change” value was 0.371. The same measure for RRIRKRPPRLPRPRPRPVDQPRP: 0.766; for RRIRWRPPRLPRPRPRPYVDPRP: -0.171; for RRIRMRPPRLPRPRPRPVFYPRP: -0.0165. Turning to RRIRGRPPRLPRPRPRPNQAPRP, the “shrunken log2 fold change” value is -0.0774.

With RRIRQRPPRLPRPRPRPQGCPRP, the “shrunken log2 fold change” value was -0.0562.

On to RRIRFRPPRLPRPRPRPCWCPRP, for which the “shrunken log2 fold change” value is -0.00345. With RRIRLRPPRLPRPRPRPMGQPRP the figure was 0.0212.

Take RRIRDRPPRLPRPRPRPWTLPRP: the “shrunken log2 fold change” value was -0.424. As for RRIRQRPPRLPRPRPRPGPCPRP, the “shrunken log2 fold change” value was -0.0469. Regarding RRIRCRPPRLPRPRPRPWWDPRP, the “shrunken log2 fold change” value stood at 0.00335. As to RRIRLRPPRLPRPRPRPTTNPRP, the “shrunken log2 fold change” value was -0.0886. With RRIRDRPPRLPRPRPRPKYQPRP the figure was -0.452.

On to RRIRVRPPRLPRPRPRPAECPRP, for which the “shrunken log2 fold change” value was -0.0646.

For the sequence RRIRCRPPRLPRPRPRPNHQPRP, the “shrunken log2 fold change” value is -0.421. The same measure for RRIRPRPPRLPRPRPRPMRPPRP: 1.04. For RRIRHRPPRLPRPRPRPHTPPRP, the “shrunken log2 fold change” value is -0.147. With RRIRHRPPRLPRPRPRPCFNPRP the figure was -0.588; with RRIRYRPPRLPRPRPRPDSSPRP, -0.0431. On to RRIRQRPPRLPRPRPRPFMMPRP, for which the “shrunken log2 fold change” value is -0.25.
